Data: US20170182124A1, “FGF21 Derivatives and Uses Thereof” (Novo Nordisk A/S, priority 2014, published 2017)
Read-outs that look alike come from different tables or passages of the source.

Target: FGF receptor/BKL complex
Experiment: FGF receptor potency in an Erk phosphorylation assay in HEK293 overexpressing human BKL
Assay type: cell-based
Conditions: HEK293/BKL cells, pERK after 12 minutes
Procedure: In order to test the binding of the FGF21 derivatives to albumin, the assay was performed in the absence of serum albumin as well as in the presence of human serum albumin (HSA) (0.1% final assay concentration). An increase in EC50 value (decrease in potency) in the presence of serum albumin for FGF21 derivatives would indicate binding to serum albumin and represents a method to predict a protracted pharmacokinetic profile of the test substance in animal models. MetFGF21 (SEQ ID NO:2) is included for reference.
HEK293 cells endogenously express several FGF receptors, including FGFR1c, FGFR3c and FGFR4. These cells are unresponsive to FGF21 until transfected with the co-receptor beta-klotho (BKL). Activation of the FGF receptor/BKL complex leads to activation of the MAPK/ERK signalling pathway and phosphorylation of ERK. The level of phosphorylated ERK (pERK) at a given time point increases with increasing concentrations of FGF21. As described below the level of pERK is measured after 12 minutes of stimulation with a range of FGF21 analogue concentrations.
The HEK293/beta-klotho cells are seeded with 30.000 cells/well in 96 well plates in DMEM (BioWhittaker #BE12-604F/U1), supplemented with 10% FCS (Gibco #16140-071), 1% penicillin/streptomycin (Gibco #15140), 100 µg/ml Hygromycin B, (Calbiochem, # 400052). Two days later and 2 hours before addition of compound the cell medium is exchanged with 100 ∞l basal medium (DMEM (BioWhittaker #BE12-604F/U1)). The FGF21 analogues are diluted in assay medium (DMEM (BioWhittaker #BE12-604F/U1) supplemented with 0.02% Tween20), warmed to 37° C., added to the cells (100 μl) and incubated at 37° C. for 12 minutes. The FGF21 derivatives were also tested in the presence of 0.1% HSA (Sigma—A1887). All medium is quickly removed and 50 μl lysis buffer is added pr. well. The plate is shaken for 5 minutes and the lysate is ready for measurement of pERK. pERK is measured in 384 well plates with the AlphaScreen SureFire kit (PerkinElmer #TGRES10K). This kit is based on ERK and pERK specific antibodies coupled to donor and acceptor beads. The presence of pERK will bring acceptor and donor beads in close proximity and a signal is generated that is read on EnVision. The data are analysed using GraphPad Prism and the potency of the FGF21 proteins is described as absolute EC50 value.

[1] = presence of 0.1% HSA, read-out: EC50 (0.1% HSA)

Chain of FGF receptor/BKL complex (Q86Z14 whole entry, one chain of several): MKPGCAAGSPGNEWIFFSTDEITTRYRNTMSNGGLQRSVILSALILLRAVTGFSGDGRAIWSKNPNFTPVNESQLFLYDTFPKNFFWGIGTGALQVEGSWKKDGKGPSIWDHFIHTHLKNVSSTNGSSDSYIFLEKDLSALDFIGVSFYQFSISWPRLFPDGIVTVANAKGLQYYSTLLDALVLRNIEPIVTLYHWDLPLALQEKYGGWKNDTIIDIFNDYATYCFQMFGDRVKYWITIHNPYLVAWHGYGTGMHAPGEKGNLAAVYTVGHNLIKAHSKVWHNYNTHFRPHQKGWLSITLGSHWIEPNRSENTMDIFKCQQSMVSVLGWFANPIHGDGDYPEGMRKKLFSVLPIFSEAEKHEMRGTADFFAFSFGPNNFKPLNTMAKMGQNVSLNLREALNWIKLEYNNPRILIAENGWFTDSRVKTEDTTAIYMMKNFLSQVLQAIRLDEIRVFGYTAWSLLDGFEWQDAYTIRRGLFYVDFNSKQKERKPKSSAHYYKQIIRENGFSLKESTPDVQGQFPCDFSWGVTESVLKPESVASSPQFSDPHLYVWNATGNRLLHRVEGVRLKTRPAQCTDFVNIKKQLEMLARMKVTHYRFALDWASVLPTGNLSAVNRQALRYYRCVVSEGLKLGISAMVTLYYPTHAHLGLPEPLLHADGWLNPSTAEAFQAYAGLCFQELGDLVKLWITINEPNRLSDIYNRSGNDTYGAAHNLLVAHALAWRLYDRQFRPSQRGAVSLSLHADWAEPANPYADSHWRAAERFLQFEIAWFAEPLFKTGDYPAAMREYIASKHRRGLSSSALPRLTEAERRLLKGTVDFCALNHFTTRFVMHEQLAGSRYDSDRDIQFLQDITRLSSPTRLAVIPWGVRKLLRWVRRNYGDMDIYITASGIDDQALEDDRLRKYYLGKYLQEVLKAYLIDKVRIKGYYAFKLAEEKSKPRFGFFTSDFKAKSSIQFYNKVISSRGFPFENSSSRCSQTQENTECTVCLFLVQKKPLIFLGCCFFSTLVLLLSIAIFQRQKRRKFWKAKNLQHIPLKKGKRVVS

B1: 16-[[(1S)-4-[2-[2-[2-[2-[2-[2-(2-acetamidoethylamino)-2-oxo-ethoxy]ethoxy]ethylamino]-2-oxo-ethoxy]ethoxy]ethylamino]-1-carboxy-4-oxo-butyl]amino]-16-oxo-hexadecanoic … (protein)
chain: HPIPDSSPLLQFGGQVRQRYLYTDDAQQTEAHLEIREDGTVGGAADQSPESLLQLKALKPGVIQILGVKTSRFLCQRPDGALYGSLHFDPEACSFRELLLEDGYNVYQSEAHGLPLHLPGQKSPHRDPAPRGPARFLPLPGLPPALPEPPGILAPQPPDVGSSDPLSLVGPSQCRSPSYAS
EC50 (absence of HSA, read-out: EC50): 2 nM | EC50 [1]: 4 nM

B2: 20-[[(1S)-4-[[(1S)-4-[2-[2-[2-[2-[2-[2-[[(1S)-5-acetamido-1-carboxy-pentyl]amino]-2-oxo-ethoxy]ethoxy]ethylamino]-2-oxo-ethoxy]ethoxy]ethylamino]-1-carboxy-4-oxo-butyl]amino]-1-carboxy-4-oxo-butyl]ami … (protein)
chain: HPIPDSSPLLQFGGQVRQRYLYTDDAQQTEAHLEIREDGTVGGAADQSPESLLQLKALKPGVIQILGVKTSRFLCQRPDGALYGSLHFDPEACSFRELLLEDGYNVYQSEAHGLPLHLPGQKSPHRDPAPRGPARFLPLPGLPPALPEPPGILAPQPPDVGSSDPLSLVGPSQGRSPSYCS
EC50 (absence of HSA, read-out: EC50): 10.3 nM | EC50 [1]: 65.5 nM

B3: (2S)-6-acetamido-2-[[2-[2-[2-[[2-[2-[2-[[(4S)-4-carboxy-4-(16-sulfohexadecanoylamino)butanoyl]amino]ethoxy]ethoxy]acetyl]amino]ethoxy]ethoxy]acetyl]amino]hexadecanoic … (protein)
chain: HPIPDSSPLLQFGGQVRQRYLYTDDAQQTEAHLEIREDGTVGGAADQSPESLLQLKALKPGVIQILGVKTSRFLCQRPDGALYGSLHFDPEACSFRELLLEDGYNVYQSEAHGLPLHLPGQKSPHRDPAPRGPARFLPLPGLPPALPEPPGILAPQPPDVGSSDPLSLVGPSQGRSPSYCS
EC50 (absence of HSA, read-out: EC50): 4.2 nM | EC50 [1]: 7.1 nM

B4: S{Beta-175}-[2-[2-[[2-[2-[2-[[2-[2-[2-[[(4S)-4-carboxy-4-(15-carboxypentadecanoyl-amino)butanoyl]amino]ethoxy]ethoxy]acetyl]amino]ethoxy]ethoxy]acetyl]amino]-ethylamino]-2-oxoethyl]-Ala[Gln121,Leu168, … (protein)
chain: HPIPDSSPLLQFGGQVRQRYLYTDDAQQTEAHLEIREDGTVGGAADQSPESLLQLKALKPGVIQILGVKTSRFLCQRPDGALYGSLHFDPEACSFRELLLEDGYNVYQSEAHGLPLHLPGQKSPHRDPAPRGPARFLPLPGLPPALPEPPGILAPQPPDVGSSDPLSLVGPSQGCSPSYAS
EC50 (absence of HSA, read-out: EC50): 1 nM | EC50 [1]: 1 nM

B5: 4-[10-[[4-[2-[2-[2-[2-[2-[2-[[(1S)-5-acetamido-1-carboxy-pentyl]amino]-2-oxo-ethoxy]ethoxy]ethylamino]-2-oxo-ethoxy]ethoxy]ethylamino]-4-oxo-butyl]sulfonylamino]-10-oxo-decoxy]benzoic … (protein)
chain: HPIPDSSPLLQFGGQVRQRYLYTDDAQQTEAHLEIREDGTVGGAADQSPESLLQLKALKPGVIQILGVKTSRFLCQRPDGALYGSLHFDPEACSFRELLLEDGYNVYQSEAHGLPLHLPGQKSPHRDPAPRGPARFLPLPGLPPALPEPPGILAPQPPDVGSSDPLSLVGPSQGRSPSYCS
EC50 (absence of HSA, read-out: EC50): 3.2 nM | EC50 [1]: 4 nM

B6: 20-[[(1S)-4-[2-[2-[2-[2-[2-[2-[[(1S)-5-acetamido-1-carboxy-pentyl]amino]-2-oxo-ethoxy]ethoxy]ethylamino]-2-oxo-ethoxy]ethoxy]ethylamino]-1-carboxy-4-oxo-butyl]amino]-20-oxo-icosanoic … (protein)
chain: HPIPDSSPLLQFGGQVRQRYLYTDDAQQTEAHLEIREDGTVGGAADQSPESLLQLKALKPGVIQILGVKTSRFLCQRPDGALYGSLHFDPEACSFRELLLEDGYNVYQSEAHGLPLHLPGQKSPHRDPAPRGPARFLPLPGLPPALPEPPGILAPQPPDVGSSDPLSLVGPSQGRSPSYCS
EC50 (absence of HSA, read-out: EC50): 6.1 nM | EC50 [1]: 52.5 nM

B7: 12-[[(1S)-4-[2-[2-[2-[2-[2-[2-[[(1S)-5-acetamido-1-carboxy-pentyl]amino]-2-oxo-ethoxy]ethoxy]ethylamino]-2-oxo-ethoxy]ethoxy]ethylamino]-1-carboxy-4-oxo-butyl]amino]-12-oxo-dodecanoic … (protein)
chain: HPIPDSSPLLQFGGQVRQRYLYTDDAQQTEAHLEIREDGTVGGAADQSPESLLQLKALKPGVIQILGVKTSRFLCQRPDGALYGSLHFDPEACSFRELLLEDGYNVYQSEAHGLPLHLPGQKSPHRDPAPRGPARFLPLPGLPPALPEPPGILAPQPPDVGSSDPLSLVGPSQGRSPSYCS
EC50 (absence of HSA, read-out: EC50): 8.4 nM | EC50 [1]: 3.4 nM

B8: S{Beta-169}-[2-[2-[[2-[2-[2-[[2-[2-[2-[[(4S)-4-carboxy-4-(15-carboxypentadecanoyl-amino)butanoyl]amino]ethoxy]ethoxy]acetyl]amino]ethoxy]ethoxy]acetyl]amino]-ethylamino]-2-oxoethyl]-Ala[Gln121,Leu168, … (protein)
chain: HPIPDSSPLLQFGGQVRQRYLYTDDAQQTEAHLEIREDGTVGGAADQSPESLLQLKALKPGVIQILGVKTSRFLCQRPDGALYGSLHFDPEACSFRELLLEDGYNVYQSEAHGLPLHLPGQKSPHRDPAPRGPARFLPLPGLPPALPEPPGILAPQPPDVGSSDPLSLCGPSQGRSPSYAS
EC50 (absence of HSA, read-out: EC50): 25 nM | EC50 [1]: 20 nM

B9: S{Beta-176}-[2-[2-[[2-[2-[2-[[2-[2-[2-[[(4S)-4-carboxy-4-(15-carboxypentadecanoyl-amino)butanoyl]amino]ethoxy]ethoxy]acetyl]amino]ethoxy]ethoxy]acetyl]amino]-ethylamino]-2-oxoethyl]-Ala[Gln121,Leu168, … (protein)
chain: HPIPDSSPLLQFGGQVRQRYLYTDDAQQTEAHLEIREDGTVGGAADQSPESLLQLKALKPGVIQILGVKTSRFLCQRPDGALYGSLHFDPEACSFRELLLEDGYNVYQSEAHGLPLHLPGQKSPHRDPAPRGPARFLPLPGLPPALPEPPGILAPQPPDVGSSDPLSLVGPSQGRCPSYAS
EC50 (absence of HSA, read-out: EC50): 214 nM | EC50 [1]: 373 nM

B10: 16-[[4-[[(1S)-4-[2-[2-[2-[2-[2-[2-(2-acetamidoethylamino)-2-oxo-ethoxy]ethoxy]ethylamino]-2-oxo-ethoxy]ethoxy]ethylamino]-1-carboxy-4-oxo-butyl]carbamoyl]cyclohexyl]methylamino]-16-oxo-hexadecanoic … (protein)
chain: HPIPDSSPLLQFGGQVRQRYLYTDDAQQTEAHLEIREDGTVGGAADQSPESLLQLKALKPGVIQILGVKTSRFLCQRPDGALYGSLHFDPEACSFRELLLEDGYNVYQSEAHGLPLHLPGQKSPHRDPAPRGPARFLPLPGLPPALPEPPGILAPQPPDVGSSDPLSLVGPSQGRSPSYCS
EC50 (absence of HSA, read-out: EC50): 3.5 nM | EC50 [1]: 3.2 nM

B11: 20-[[4-[[(1S)-4-[2-[2-[2-[2-[2-[2-[[(1S)-5-[(2-acetamido]-1-carboxy-pentyl]amino]-2-oxo-ethoxy]ethoxy]ethylamino]-2-oxo-ethoxy]ethoxy]ethylamino]-1-carboxy-4-oxo-butyl]carbamoyl]cyclohexyl]methylamino … (protein)
chain: HPIPDSSPLLQFGGQVRQRYLYTDDAQQTEAHLEIREDGTVGGAADQSPESLLQLKALKPGVIQILGVKTSRFLCQRPDGALYGSLHFDPEACSFRELLLEDGYNVYQSEAHGLPLHLPGQKSPHRDPAPRGPARFLPLPGLPPALPEPPGILAPQPPDVGSSDPLSLVGPSQGRSPSYCS
EC50 (absence of HSA, read-out: EC50): 4 nM
